This passage reports Kd results from PMC9352680, “A comprehensive thermodynamic model for RNA binding by the Saccharomyces cerevisiae Pumilio protein PUF4”.

As a reminder, the Kd is the constant that tells how readily two partners part at equilibrium. Low readings indicate tighter binding, high ones weaker binding.

The data set deals with T1, PUF4 RNA-binding domain (Saccharomyces cerevisiae, UniProt P25339 537-888).
T1 sequence: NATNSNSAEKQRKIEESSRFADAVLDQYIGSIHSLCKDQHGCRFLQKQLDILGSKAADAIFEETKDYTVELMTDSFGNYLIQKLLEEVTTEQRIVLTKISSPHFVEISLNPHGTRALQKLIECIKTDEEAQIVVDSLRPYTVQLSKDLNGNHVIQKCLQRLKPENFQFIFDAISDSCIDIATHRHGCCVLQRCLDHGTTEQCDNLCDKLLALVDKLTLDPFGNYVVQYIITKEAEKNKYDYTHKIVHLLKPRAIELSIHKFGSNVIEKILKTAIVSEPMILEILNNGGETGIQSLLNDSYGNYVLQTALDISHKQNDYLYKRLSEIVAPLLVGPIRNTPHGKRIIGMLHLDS
Nature of the data set: Mg; RNA-MaP; 20 mM Na-HEPES pH 7.4, 30 mM KOAc, 0.75 mM MgCl2, 0.1% Tween-20, 5% glycerol, 0.1 mg/mL BSA, 2 mM DTT; 25 C; 0.0125-409.6 nM protein. As to conditions: tags: N-His6-TEV cleaved; C-SNAP kept, Cy3B-labelled; label: tethered on chip by stalled RNA polymerase.

Where a chain is given by its changes, count along the chain named. Names and notes keep the numbering of the source.

Molecule UCUCUUUGUAUUAUUAUCUCUU (ssRNA) [If_S1_P5E.1_K5.1_C5.1_H5.1_A5.1_F5.1_T5.1] displayed a Kd of 0.00468 µM.
With UCUCUUUGCCCUUAUAUUAUCUCUU (ssRNA) [Ie_S1_P4E.1_K4.1_C4.1_H4.1_[+2CCCT]_A4.1_F4.1_T4.1], the Kd came to 1.08 µM.
As for UCUCUUUGCCUCUUAUAUUAUCUCUU (ssRNA) [Ie_S1_P4E.1_K4.1_C4.1_H4.1_[+2CCTCT]_A4.1_F4.1_T4.1], the figure is 2.13 µM; as for UCUCUUUGUUCCUAUAUUAUCUCUU (ssRNA) [Ie_S1_P4E.1_K4.1_C4.1_H4.1_[+2TTCC]_A4.1_F4.1_T4.1], 0.101 µM; as for UCUCUUUGCUCUAUAUUAUCUCUU (ssRNA) [Ie_S1_P4E.1_K4.1_C4.1_H4.1_[+2CTC]_A4.1_F4.1_T4.1], 0.583 µM.
UCUCUUUGUCUCUAUAUUAUCUCUU (ssRNA) [Ie_S1_P4E.1_K4.1_C4.1_H4.1_[+3CTCT]_A4.1_F4.1_T4.1]: the Kd was 0.121 µM.
For UCUCUUUGUACUUAUUAUCUCUU (ssRNA) [Ie_S1_P5E.1_K5.1_C5.1_H5.1_[+4C]_A5.1_F5.1_T5.1], the Kd was determined as 0.0143 µM. Compared with the last molecule, the Kd is about 8.5-fold lower.
Consider UCUCUUUUUCCUGUAUAUUAUCUCUU (ssRNA) [Ie_S1_P4E.1_K4.1_C4.1_H4.1_[+1TTCCT]_A4.1_F4.1_T4.1], for which the affinity, expressed as Kd, was 0.00118 µM.
UCUCUUUGUUUUAUAUUAUCUCUU (ssRNA) [Ie_S1_P4E.1_K4.1_C4.1_H4.1_[+3TTT]_A4.1_F4.1_T4.1]: the Kd turned out to be 0.0329 µM. This Kd lies about 28-fold higher than the previous one.
Next, UCUCUUUCUCUGUAUAUUAUCUCUU (ssRNA) [Ie_S1_P4E.1_K4.1_C4.1_H4.1_[+1CTCT]_A4.1_F4.1_T4.1]: 0.000881 µM.
UCUCUUUGUUCAUAUUAUCUCUU (ssRNA) [Ie_S1_P4E.1_K4.1_C4.1_H4.1_[+3TC]_A4.1_F4.1_T4.1] yielded a Kd of 0.134 µM.
With UCUCUUUGCCUAUAUUAUCUCUU (ssRNA) [Ie_S1_P4E.1_K4.1_C4.1_H4.1_[+2CC]_A4.1_F4.1_T4.1], the Kd was found to be 1.39 µM.
In turn, UCUCUUUGUCUCUUAUAUUAUCUCUU (ssRNA) [Ie_S1_P4E.1_K4.1_C4.1_H4.1_[+2TCTCT]_A4.1_F4.1_T4.1] yielded a Kd of 0.134 µM. Compared with the last molecule, the Kd is about 10-fold lower.
Next, UCUCUUUGUUCUAUAUUAUCUCUU (ssRNA) [Ie_S1_P4E.1_K4.1_C4.1_H4.1_[+3TCT]_A4.1_F4.1_T4.1]: 0.0272 µM; UCUCUUUGUCCUAUAUUAUCUCUU (ssRNA) [Ie_S1_P4E.1_K4.1_C4.1_H4.1_[+2TCC]_A4.1_F4.1_T4.1]: 0.0404 µM.
For UCUCUUUGCUAUAUUAUCUCUU (ssRNA) [Ie_S1_P4E.1_K4.1_C4.1_H4.1_[+2C]_A4.1_F4.1_T4.1], the Kd was found to be 0.107 µM.
UCUCUUUGUUCUCAUAUUAUCUCUU (ssRNA) [Ie_S1_P4E.1_K4.1_C4.1_H4.1_[+3TCTC]_A4.1_F4.1_T4.1]: the Kd came out at 0.103 µM.
Consider UCUCUUUGUCUAUAUUAUCUCUU (ssRNA) [Ie_S1_P4E.1_K4.1_C4.1_H4.1_[+2TC]_A4.1_F4.1_T4.1], for which binding was characterised by a dissociation constant (Kd) of 0.0829 µM.
As for UCUCUUUGUUUAUAUUAUCUCUU (ssRNA) [Ie_S1_P4E.1_K4.1_C4.1_H4.1_[+2TT]_A4.1_F4.1_T4.1], the Kd was found to be 0.0609 µM.
Next, UCUCUUUGCCUUAUAUUAUCUCUU (ssRNA) [Ie_S1_P4E.1_K4.1_C4.1_H4.1_[+2CCT]_A4.1_F4.1_T4.1]: 1.33 µM; UCUCUUUUCUCUGUAUAUUAUCUCUU (ssRNA) [Ie_S1_P4E.1_K4.1_C4.1_H4.1_[+1TCTCT]_A4.1_F4.1_T4.1]: 0.000586 µM; UCUCUUUUUCGUAUAUUAUCUCUU (ssRNA) [Ie_S1_P4E.1_K4.1_C4.1_H4.1_[+1TTC]_A4.1_F4.1_T4.1]: 0.0209 µM.
Take UCUCUUUGUUUCCAUAUUAUCUCUU (ssRNA) [Ie_S1_P4E.1_K4.1_C4.1_H4.1_[+3TTCC]_A4.1_F4.1_T4.1]: the affinity, expressed as Kd, was 0.0837 µM.
The molecule UCUCUUUCCUCUGUAUAUUAUCUCUU (ssRNA) [Ie_S1_P4E.1_K4.1_C4.1_H4.1_[+1CCTCT]_A4.1_F4.1_T4.1] showed a Kd of 0.000539 µM.
As for UCUCUUUCUUGUAUAUUAUCUCUU (ssRNA) [Ie_S1_P4E.1_K4.1_C4.1_H4.1_[+1CTT]_A4.1_F4.1_T4.1], the Kd came to 0.000599 µM.
Next, UCUCUUUGUCUUAUAUUAUCUCUU (ssRNA) [Ie_S1_P4E.1_K4.1_C4.1_H4.1_[+2TCT]_A4.1_F4.1_T4.1]: 0.0459 µM.

B1: Ic_S2_P3E.1_K3.1_C3.1_H3.1_A3.1_F3.1_[T7G]_[A8C]_T3.1 (ssRNA)
RNA: UUUGAUUAAUAUGAUAUCGUUCUUUCUUGUAUAGCUUCUUUCUCGAUAUCAUAUUAAUCUUU
B1 registered a Kd of 0.109 µM.

B2: Ic_S2_P3E.1_K3.1_C3.1_H3.1_A3.1_F3.1_[T7G]_[A8T]_T3.1 (ssRNA)
RNA: B1 RNA with C35U
B2 showed a Kd of 0.0259 µM. This Kd is about 4.2-fold lower than that of the molecule before.
For the molecule UCUCUUUGUAUAUUUAUCUCUU (ssRNA) [Ie_S1_P4E.1_K4.1_C4.1_H4.1_A4.1_F4.1_[+8T]_T4.1], the Kd is 0.00239 µM.
UCUCUUUGCUUAUAUUAUCUCUU (ssRNA) [Ie_S1_P4E.1_K4.1_C4.1_H4.1_[+2CT]_A4.1_F4.1_T4.1]: the Kd came to 0.87 µM.
Consider UCUCUUUGUCUCUCAUAUUAUCUCUU (ssRNA) [Ie_S1_P4E.1_K4.1_C4.1_H4.1_[+3CTCTC]_A4.1_F4.1_T4.1], for which the Kd is 0.949 µM.
Next, UCUCUUUGUCUCAUAUUAUCUCUU (ssRNA) [Ie_S1_P4E.1_K4.1_C4.1_H4.1_[+3CTC]_A4.1_F4.1_T4.1]: 0.0373 µM.
UCUCUUUGUUUCCUAUAUUAUCUCUU (ssRNA) [Ie_S1_P4E.1_K4.1_C4.1_H4.1_[+3TTCCT]_A4.1_F4.1_T4.1] gave a Kd of 0.0587 µM.
On to UCUCUUUGUUCUCUAUAUUAUCUCUU (ssRNA) [Ie_S1_P4E.1_K4.1_C4.1_H4.1_[+3TCTCT]_A4.1_F4.1_T4.1], for which the Kd was 0.0496 µM.
In turn, UCUCUUUGCUCUUAUAUUAUCUCUU (ssRNA) [Ie_S1_P4E.1_K4.1_C4.1_H4.1_[+2CTCT]_A4.1_F4.1_T4.1] displayed a dissociation constant (Kd) of 0.985 µM.
For UCUCUUUCUCUCGUAUAUUAUCUCUU (ssRNA) [Ie_S1_P4E.1_K4.1_C4.1_H4.1_[+1CTCTC]_A4.1_F4.1_T4.1], the Kd came to 0.0279 µM. This Kd lies about 35-fold lower than the previous one.
Next, UCUCUUUUUCCGUAUAUUAUCUCUU (ssRNA) [Ie_S1_P4E.1_K4.1_C4.1_H4.1_[+1TTCC]_A4.1_F4.1_T4.1]: 0.0363 µM; UCUCUUUCCCUGUAUAUUAUCUCUU (ssRNA) [Ie_S1_P4E.1_K4.1_C4.1_H4.1_[+1CCCT]_A4.1_F4.1_T4.1]: 0.0012 µM; UCUCUUUGCCUCUAUAUUAUCUCUU (ssRNA) [Ie_S1_P4E.1_K4.1_C4.1_H4.1_[+2CCTC]_A4.1_F4.1_T4.1]: 1.01 µM.
UCUCUUUUCUGUAUAUUAUCUCUU (ssRNA) [Ie_S1_P4E.1_K4.1_C4.1_H4.1_[+1TCT]_A4.1_F4.1_T4.1]: the affinity, expressed as Kd, was 0.000546 µM.
Next, UCUCUUUGCUCUCUAUAUUAUCUCUU (ssRNA) [Ie_S1_P4E.1_K4.1_C4.1_H4.1_[+2CTCTC]_A4.1_F4.1_T4.1]: 0.733 µM; UCUCUUUCCCUUGUAUAUUAUCUCUU (ssRNA) [Ie_S1_P4E.1_K4.1_C4.1_H4.1_[+1CCCTT]_A4.1_F4.1_T4.1]: 0.000454 µM.
Turning to UCUCUUUGUAUACUUAUCUCUU (ssRNA) [Ie_S1_P4E.1_K4.1_C4.1_H4.1_A4.1_[+6C]_F4.1_T4.1], the Kd came to 0.00435 µM. This Kd is about 9.6-fold higher than that of the molecule before.
UCUCUUUUCUCGUAUAUUAUCUCUU (ssRNA) [Ie_S1_P4E.1_K4.1_C4.1_H4.1_[+1TCTC]_A4.1_F4.1_T4.1] had a Kd of 0.0197 µM.
